In patent US20080166343A1 (CSL, published 2008):

Legend:
[1] = target: T1, human IL-13Rα1 on cells (NHDF cells; cells of whole human blood) (human, UniProt P78552 27-427); experiment: cell-based or functional assay
T1 sequence: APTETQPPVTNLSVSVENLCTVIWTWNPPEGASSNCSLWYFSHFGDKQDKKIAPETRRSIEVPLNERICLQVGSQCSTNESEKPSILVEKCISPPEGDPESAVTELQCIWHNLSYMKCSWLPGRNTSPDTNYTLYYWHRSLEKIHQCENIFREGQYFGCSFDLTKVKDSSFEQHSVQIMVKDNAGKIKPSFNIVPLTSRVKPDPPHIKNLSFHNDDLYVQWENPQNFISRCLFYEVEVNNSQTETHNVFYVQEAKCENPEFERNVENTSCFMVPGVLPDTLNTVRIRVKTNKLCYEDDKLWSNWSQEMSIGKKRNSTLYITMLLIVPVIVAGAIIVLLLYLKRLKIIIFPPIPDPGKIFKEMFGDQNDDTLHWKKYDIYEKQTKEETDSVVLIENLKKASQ

[2] = target: T1, human IL-13Rα1 on cells (NHDF cells; …); experiment: cell-based or functional assay; remark: listed apart in the source

EC50, inhibition of eotaxin release from NHDF cells upon stimulation by IL-13 [1]: 0.614 µg/mL | EC50, inhibition of eotaxin release from NHDF cells upon stimulation by IL-4 [2]: 0.983 µg/mL
B1: 10G5-3 (antibody, human IgG4 S228P, kappa, V domains shown)
VH: EVQLVQSGAEVKKPGESLKISCKGSGYSFTSYWIGWVRQMPGKGLEWMGVIYPGDSYTRYSPSFQGQVTISADKSISTAYLQWSSLKASDTAMYYCARMPNWGSFDYWGQGTLVTVSS
VL: EIVLTQSPGTLSLSPGERATLSCRASQSISSSYLAWYQQKPGQAPRLLIYGASSRATGIPDRFSGSGSGTDFTLTISRLEPEDFAVYYCQQYEAFGQGTKVEIKR
